Data reported in patent US6943243.

Target: TraR (Agrobacterium strain A348)
Experiment: cell-based or functional assay

Row | Substance | fold +/- (induction of GUS by C8-AHL, TraR + TraM co-transfected) [fold] | fold +/- (induction of GUS by C8-AHL, TraR + TraS co-transfected) [fold]
1 | TraM | 0.8 | –
2 | TraS | – | 6.6
